{"source": "paper PMC4469479", "proteins": {"B1": {"name": "dDATwt (Drosophila melanogaster) (protein)", "chain": "MSPTGHISKSKTPTPHDNDNNSISDERETWSGKVDFLLSVIGFAVDLANVWRFPYLCYKNGGGAFLVPYGIMLVVGGIPLFYMELALGQHNRKGAITCWGRLVPLFKGIGYAVVLIAFYVDFYYNVIIAWSLRFFFASFTNSLPWTSCNNIWNTPNCRPFESQNASRVPVIGNYSDLYAMGNQSLLYNETYMNGSSLDTSAVGHVEGFQSAASEYFNRYILELNRSEGIHDLGAIKWDMALCLLIVYLICYFSLWKGISTSGKVVWFTALFPYAVLLILLIRGLTLPGSFLGIQYYLTPNFSAIYKAEVWVDAATQVFFSLGPGFGVLLAYASYNKYHNNVYKDALLTSFINSATSFIAGFVIFSVLGYMAHTLGVRIEDVATEGPGLVFVVYPAAIATMPASTFWALIFFMMLLTLGLDSSFGGSEAIITALSDEFPKIKRNRELFVAGLFSLYFVVGLASCTQGGFYFFHLLDRYAAGYSILVAVFFEAIAVSWIYGTNRFSEDIRDMIGFPPGRYWQVCWRFVAPIFLLFITVYGLIGYEPLTYADYVYPSWANALGWCIAGSSVVMIPAVAIFKLLSTPGSLRQRFTILTTPWRDQQSMAMVLNGVTTEVTVVRLTDTETAKEPVDV"}}, "substrate": "NCCc1ccc(O)c(O)c1", "test": "cells, lysate or membranes", "details": "other: HEK293S cells; 14C-DA 0.3–60 μM; s.e.m.; pH 7.4"}
{"protein": "B1", "values": [{"measurement": "Km", "value": "2.1 ± 0.7", "unit": "µM"}]}
